Values joined by “and” are separate entries in the source; they are usually repeats but may differ in a detail not shown here. Identical values can stand only once.
What was measured:
[1] = target: RPLL mutant of JIP1_(116–266) (R160E, P161A, L164A, L166A) (UniProt Q9UQF2); assay: NMR 15N CPMG relaxation dispersion
[2] = target: c-Jun N-terminal kinase 1 (JNK1), inactive, unphosphorylated form (UniProt P45983); assay: native MS
[3] = target: T1, c-Jun N-terminal kinase 1 (JNK1), inactive, unphosphorylated form (UniProt P45983 5-364); assay: native MS
T1 sequence (P45983 5-364): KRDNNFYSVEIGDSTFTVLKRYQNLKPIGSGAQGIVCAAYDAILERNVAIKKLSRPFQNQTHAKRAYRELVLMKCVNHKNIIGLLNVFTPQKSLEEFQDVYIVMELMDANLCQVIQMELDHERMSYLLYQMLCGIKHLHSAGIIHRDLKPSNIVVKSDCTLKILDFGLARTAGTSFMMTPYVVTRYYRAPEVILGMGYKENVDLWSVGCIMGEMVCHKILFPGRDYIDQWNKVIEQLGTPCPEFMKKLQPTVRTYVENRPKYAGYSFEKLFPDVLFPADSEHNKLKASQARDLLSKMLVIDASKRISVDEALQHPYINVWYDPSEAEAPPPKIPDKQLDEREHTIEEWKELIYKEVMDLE

[4] = target: T1, c-Jun N-terminal kinase 1 (JNK1), …; assay: ITC

Chain of c-Jun N-terminal kinase 1 (JNK1), inactive, unphosphorylated form (UniProt P45983) (P45983 5-364): as above

Row | Molecule | stoichiometry N [3] | Kd [4] | dH [4] | further results
1 | c-Jun N-terminal kinase 1 (JNK1), inactive, unphosphorylated form (from UniProt P45983 5-364) (enzyme) |  |  |  | Kd [1]: 2200 µM; bound-state population pB [1]: 1.6%; exchange rate constant kex [1]: 1100 s⁻¹; koff [1]: 1080 s⁻¹; kon [1]: 480000 M⁻¹ s⁻¹
2 | JIP1_(1–145) (from UniProt Q9UQF2 1-145) (domain or fragment) |  |  |  | stoichiometry N [2]: 1
3 | JIP1_(1–266) (domain or fragment, UniProt Q9UQF2 1-266, looked up) MAERESGGLGGGAASPPAASPFLGLHIASPPNFRLTHDISLEEFEDEDLSEITDECGISLQCKDTLSLRPPRAGLLSAGGGGAGSRLQAEMLQMDLIDATGDTPGAEDDEEDDDEERAARRPGAGPPKAESGQEPASRGQGQSQGQSQGPGSGDTYRPKRPTTLNLFPQVPRSQDTLNNNSLGKKHSWQDRVSRSSSPLKTGEQTPPHEHICLSDELPPQSGPAPTTDRGTSTDSPCRRSTATQMAPPGGPPAAPPGGRGHSHRDR | 1 and 2 JNK1 per JIP1 |  |  | 
4 | IL mutant of JIP1_(116–266) (I211A, L213A) (domain or fragment, UniProt Q9UQF2 116-266, looked up) ERAARRPGAGPPKAESGQEPASRGQGQSQGQSQGPGSGDTYRPKRPTTLNLFPQVPRSQDTLNNNSLGKKHSWQDRVSRSSSPLKTGEQTPPHEHACASDELPPQSGPAPTTDRGTSTDSPCRRSTATQMAPPGGPPAAPPGGRGHSHRDR | 1 | 0.082 µM | -10.7 kcal/mol | 
5 | JIP1_(116–266), the shortest construct comprising the D-motif (domain or fragment, UniProt Q9UQF2 116-266, looked up) ERAARRPGAGPPKAESGQEPASRGQGQSQGQSQGPGSGDTYRPKRPTTLNLFPQVPRSQDTLNNNSLGKKHSWQDRVSRSSSPLKTGEQTPPHEHICLSDELPPQSGPAPTTDRGTSTDSPCRRSTATQMAPPGGPPAAPPGGRGHSHRDR | 1 | 0.081 µM | -11.6 kcal/mol | ΔΔH (binding enthalpy against the D-motif peptide) [4]: 4 kcal/mol
6 | RPKRPTTLNLF [peptide corresponding to the D-motif of JIP1 (157RPKRPTTLNLF167)] |  | 0.217 µM |  | 

Reference: article PMC11892650 (Proceedings of the National Academy of Sciences of the …, 2025)
